Measurements reported in patent EP2411513B1.

Molecular target: CD11b/CD18 receptor on J774A.1 murine monocytes/macrophages (murine) (UniProt P05555)
Assay: cell-based or functional assay

**Q.** “CyaA/233OVA/K860R/AC- (from UniProt J7QLC0 1-1706)” was tested. Which Lysis of J774A.1 cells (% of AC-) did it give?
**A.** Its Lysis of J774A.1 cells (% of AC-) is 72 % of AC-.
